In patent US20260374883 (published 2026):

T1: rat CX3CR1 (rat, UniProt P35411)
T1 chain: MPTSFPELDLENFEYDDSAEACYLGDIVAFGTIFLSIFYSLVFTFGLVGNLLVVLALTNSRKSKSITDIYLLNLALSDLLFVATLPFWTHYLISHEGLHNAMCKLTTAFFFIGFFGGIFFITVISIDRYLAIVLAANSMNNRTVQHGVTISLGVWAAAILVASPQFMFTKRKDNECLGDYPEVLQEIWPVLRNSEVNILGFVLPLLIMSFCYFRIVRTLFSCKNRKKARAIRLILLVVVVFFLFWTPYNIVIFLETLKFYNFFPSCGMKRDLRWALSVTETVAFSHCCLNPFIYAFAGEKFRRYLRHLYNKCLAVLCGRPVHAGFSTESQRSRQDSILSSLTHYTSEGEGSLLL

T2: mouse CX3CR1 (mouse, UniProt Q9Z0D9)
T2 chain: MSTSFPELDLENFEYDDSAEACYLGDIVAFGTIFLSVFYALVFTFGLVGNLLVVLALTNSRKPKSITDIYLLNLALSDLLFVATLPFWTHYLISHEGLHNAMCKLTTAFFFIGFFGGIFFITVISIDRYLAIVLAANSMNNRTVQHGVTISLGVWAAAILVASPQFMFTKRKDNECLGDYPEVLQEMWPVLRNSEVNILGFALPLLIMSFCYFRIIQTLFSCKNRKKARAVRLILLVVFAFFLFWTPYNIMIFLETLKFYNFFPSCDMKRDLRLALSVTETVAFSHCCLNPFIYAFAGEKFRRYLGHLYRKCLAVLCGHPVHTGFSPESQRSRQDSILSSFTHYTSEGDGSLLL


Columns and labels:
rat CX3CR1 = target: T1, rat CX3CR1; assay: FACS
mouse CX3CR1 = target: T2, mouse CX3CR1; assay: FACS

binding result (rat CX3CR1) | binding result (mouse CX3CR1) | Binder
no binding | no binding | m1F8-2 (antibody, V domains shown) VH: QVQLQQSGAELARPGASVKLSCKASGFTFTNYWMQWIKQRPGQGLEWIGAIYPGSGESRYTRKFKGKATLTADKSSSTAYMQLNSLASEDSAVYYCARWAGYSRNAAYWGQGTLVTVSA VL: DVLMTQTPLSLPVSLGDQASISCRSRQSIVHSSGNTYLEWYLQKPGQSPKLLIYKVSNRFSGVPDRFSGSGSGTDFTLKISRVEAEDLGVYYCFQGSHIPPTFGGGTKLEIK
no binding | no binding | m1F8-1 (antibody, V domains shown) VH: QVQLQQSGAELARPGASVKLSCKASGFTFTNYWMQWIKQRPGQGLEWIGAIYPGSGESRYTRKFKGKATLTADKSSSTAYMQLNSLASEDSAVYYCARWAGYSRNAAYWGQGTLVTVSA VL: DVLMTQTPLSLPVSLGDQASISCRSSQSIVHSSGNTYLEWYLQKPGQSPKLLIYKVSNRFSGVPDRFSGSGSGTDFTLKISRVEAEDLGVYYCFQGSHIPPTFGGGTKLEIK
